Measurements taken from the DeepSol protein solubility set.

assay: soluble on expression in E. coli; label from the status in PepcDB or PDB records

Sequence | soluble on expression in E. coli
MTLRCSDVNVEPLPGTAKTGSGFVLLEHAGSWSRDVLDGGTFDPELTDQLKRHLKASGMGLQLIRKPGREGRNVEKHNLFLVFAEASIIEHLVVDAPADVLDLDLSGPGKNNAQRMDDPMLLICTHSKRDVCCAIKGRPLAAAVEPQFGPLHVWEASHTKGHRFAPSMLLMPWNYSYGLLDEAETVQLFQGALDNKLFLPGNRGRGTLDARGQVAEIAVAEAFGEAVAPASLQVEFEDDSVLVTHPDGRTWVVELERIEVDGVVSSCGDQPKTGKAWVARQVTELIG | not soluble
MAHHHHHHMMRSRRPLSASRASARASAASRPQPHTTVSSDDASRSQTTAPIYRPLRYVGRGSFGVVLLAEEVHTGDRVAIKRVHYDARLHNREVAILNSVLVDNPRHQQPSSTAVDSNDASRRPGGAARASCTSFLSASSSSHTVEDVHLWPGTHHPNIVELLDFYVTYDTASSEQALGADMVGAGGAGAGFEFLPSYHPAAHRYPLSGGSGAASASAPPVPAPLAAFAYLEMVMSYLPMDLCYVKRYYFRFHDMPTIATSSSSSPIASPEQAPTELSSGELPEGTADRLPASPKHAGTGCNGNNSSRHSSTSSSGGDVCNHLPLRWVKVVLFQLARALAFMHVRHVCHRDLKPANVLVDPDTGRVQVCDFGSAKQITRPAEEKNVSYICSRYYRAPELLFGALHYGCAVDMWSFGCIAAELLRESGKPLFRGCTSIDQMAELFKVLGAPSKREMYAMNPQCAEALLRTRAMHRHQSLDNDPHSGSGGGVRQDRSCGLELEVDYQAEEEDDVELRGGAQQGGYDVDSHGEFLRDALDDGISSQASASPGMATASPPSSSTKDPRDYKTTFSAPPSTAATAMLDDVAPTPFEEYYDVLKVRAIPWRRLFPVDTPTEAVALVASLLCYAPDKRLTAAELVEHPFFDDLFSAADAQLATVDRDAATAVASGATMSPSEDDGVASAALRLPNGRLMPLSMFQVTEVERGLYTDAFLTRMARQAELVAAVMKQDEYP | not soluble
HYPKALDQLSEDRGYAFSYPTAAPCERLVWSISQSLMEGKEINALFDRINSSTKRDMVTKVSPKAPHTVVLVLGESARPDYMHSYGYPLENTPRLDSLLASGAAVQFDDVVSAKPNTQGSIAAMMSIGESRAGGKWYDDPMLIPLLRSAGYYTFWLSAQEKLGFAVQNVTAIAKLSDSTLFVFRGMDDVVLPNLMQRAEYQNLFEVVHLSGSHVSYQDRYPSEFGKFTSENLPSHHDESKDAVVAHYVNSLYYTDYILGEIERKYANEDAIIIYLSDHGQVLYDAPNNPNLVGHSFSQQGVSIPLFIYLSPSMRTKYPELIPRLQSIRSRRIMTDVLPYAIMGLLGIESPLYNPELDFWGTGYDEHRPRVIYSDDSSLVID | not soluble
MNQDLSQTFLAITRNSTDLEWLQGALAPLGQVVGADGSLDELLALVDVTFANLVFVGLDREHVVAQAALIEGALEAKPMLAIVALGDGMDNQLVLNAMRAGARDFVAYGSRSSEVAGLVRRLSKRLPAVTPNTQLGGLTVLYGAQGDGDGALLASHLALVVQKSGQQTLLLDLGLPRGDSLALLGLESSFHFGDALRHLRRLDATLIDSAFTSAEAGLRILAYASHDAPLEHTSAAELYMLLSALRQHFQHIVVNLVGQPDSEALRTFVSHCDKLLWCTDQNVLDCRRNLAVLNHWREKGMKLEHARLLVDRYLRTVAPDSETLGKTFGLEVIAVLAYSPEVRLNAKNQGVTLFELAPREALTQSLRTLGERLAKRSQGLPKPKAGWLNRIMGGRLEHHHHHH | not soluble
GSSGSSGMEAVLNELVSVEDLKNFERKFQSEQAAGSVSKSTQFEYAWCLVRSKYNEDIRRGIVLLEELLPKGSKEEQRDYVFYLAVGNYRLKEYEKALKYVRGLLQTEPQNNQAKELERLIDKAMKKSGPSSG | soluble
MGSDKIHHHHHHMAKPLFDQLLASAQQARAPFHTPGHKLGRAIATHLQQAWGSAIFQSDLPELPELDNLYAASGVLAESQAQAAEVFGADRSWFLVNGSTGGLLAAILTICSPGDRLLLPRNAHRSLLSGCILSGAMPVWITPPEAADFDLVGVPTPEQVATALAQDPQIKAVVLVSPTYEGVCADVAAIAAIAHNHNLPLIIDAAHGAHLGFHPDLPRSPLHEGADLVVQSTHKLLGALTQAAMLHCKGDRIDPERLSQSLALVQSSSPSYLLLASLEAATEQMRTSAQDLLQVTIDLARQAHQRLAELPGLQLPALKIGNREGFPQWDRTRLVINFQSCGWSGFCADEYLHEQWQVTAELPSLSNLVFHLSLGNRIEDIDRLVTACDRLLSQEHQEELPPRLPVWLEPETILSPRQAWFSRHQTVSAEQAIGAIAAECVCPYPPGIPVLLPGERISKSAVDYLRQVQTTGGILSGCADPELTTLRIVQDSDTIHASCLS | not soluble
MFSEELEKIDWEETTKTIYSKTESDVLRALGKEHCDVDDFMALISPAAAKYLEPMAQLSKKYTEERFGKTISMFIPLYITNSCTNSCVYCGFHISNPMARTILTPEQIEDEYKAIKKLGPFENLLLVTGENPAKAGVPYLAKALDIAKKYFSNLKIEVMPLKAEEYAELKEHGLNGVICFQETYNKARYNIYHPRGMKSKFEWRVNGFDRMGQAGVHSIGMGVLIGLEEWRTDVTMMAYHLRYLQKKYWKTKYSVNFPRMRPAENGGFQPNVIMNDRELAQLTFAMRIFDHDVDISYSTREPAQIRDNMAGLGVTTMSAESKTEPGGYYTYPQALEQFHVSDERTAVEVEHALKSLGREPVWKDWDVSFDKFTPIR | not soluble
MKHTIGILGGMGPAATADMLEKFVELRHASCDQQHIPLIVSSIPDIPDRTACLLSGGPSPYRYLERYLHMLEDAGAECIVIPCNTAHYWFDDLQNVAKARMISILDATLGDIPPSARHVGLLATNATLATGLYQKKALARGLTLIQPEDAGQALVMQAIYTLKRGDKTAAQALLLPQIDSLIARGAQAIIMGCTEIPLIVAGHERAIACPMIDSTASLVRAAIRWYESWPDTRASLTGEQRLTA | not soluble
SNAEKAVLIGEKEADITFVTWGSQKGPILDVIEDLKEEGISANLLYLKMFSPFPTEFVKNVLSSANLVIDVESNYTAQAAQMIKLYTGIDIKNKILKYNGRHMTEDEILKSAKEILNK | soluble
MQSSTEKELLTNASLTVSSDFASNLEGALPSQPITQANPRAEQTLMTTYMSSTTNQADPKTFEEQFVNLLGTFTPSQAVCNVSNVDCGTYVRGPETWSSCKLGTQAIAPNASYIQIRVQDKHSTMDRMNWKGPIEDTSPLMKSLTANFL | not soluble
MTAAIAAPAYDAIVIGSGIGGLVTATQLAAKGAKVLVLERYLIPGGSAGWFEREGYRFDFGASIIFGFGDPGTTNLLTPPLADVGQALETIPDPVQIHYHLPNQLDLKVHRDYEAFLQELIAQFPQEAEGIRRFYDECWQVFNCLNAMPLLSLEEPKYLFNVFLQHPLACLGLVKYLPQNVGDIARRYIRNPDLLKFIDMECYCWSVVPATMTPMINAGMVFSDRHYGGINYPKGGVGRIAEKLVAGLEAKGSSIRYKARVTRILTEKGRAIGVELADGEKLYAKRIISNATRWNTFGELLPPQQEPAQEQRWQQRYRQSPSFLSLHLGVKADLLPAGTECHHILLENWDELEVEQGTIFVSIPTLLDPSLAPPDRHIIHTFTPSWLGEWDNLSPSEYRDRKAAAAAKLIQRLEAIFPGLSSAIDYQEVGTPRTHRRFLGRQNGTYGPIPRRKLAGLLGMPFNRTAIPGLYCVGDSTFPGQGLNAVAFSGYACGHRVAADLGLVLEHHHHHH | not soluble
MSDDGAFERDTTSFRHWVGDDVPPAAGRYHLYVSYACPWAHRTLLVRALLGLEDAISVSVVDPVRYDQGWTFDPEKPGCTPDHVFGGTHLRDVYTEADPEYTGRVTVPVLYDTDADTIVNNESEEIMRMLDVAFDDHAARDVDLYPEGYRDEVDRLIEDIYDPINNGVYRAGFADSQRAYDNAVDDLFEALAHYDDVLAEQRYLAGDVLTEADVAMFTTLYRFDEVYHTHFKCNRKRISDYDNLWPYLRELCQLPGVADTLYMEHVKQHYYRSHGHLNPKRLVPTGPNPAFFAPHDRDQLEHHHHHH | soluble
MAHHHHHHMGADIKLLLIDFDGTLFVDKDIKVPSENIEAIKEAIEKGYMVSICTGRSKVGILSAFGEENLKKMNFYGMPGVYINGTIVYDQIGYTLLDETIETDVYAELISYLVENNLVNQTIFHRGESNYVTEDNKYSDFLQKMYSENRSIIIRHNEMLKYRTMNKLMIVLDPSESKTVIGNLKQKFKNKLTIFTTYNGHAEVNKLGHDKYTGINYLLKHYNISNDQVLVVGDAENDIAMLSHFKYSFAVANATNSAKSHAKCVLPLSHKEGAVAYLLKKVFDLKK | not soluble
MGSDKIHHHHHHMLERRDKEITDLKRRVANMVVVGKISHVDHKNARYRVKTGNLVSDWIPDTQARAGKTRSYEGRDVGEQVVVVSSSGDLSQGVIVGSIHTDANQAADKGNLHKTLYPDGTTIEYDDEQNSYALHLTSGGKFSLTISDGVSIKGDGKKLELQAAEGIKIISQGDLSLSAEKNIALKAGGSVSLHSDDGIALHSSEGVSIHSSDLKHNGTNIGNSHVHGGVSPGGSMTGGPN | not soluble
MVKVTAACIIIGDEVLNGKVVDTNSTFFAKYCFDHGIQLKEIATIGDDETQIVDTVRRLVKNYDFIISTGGIGPTHDDITYECMAKSFNLPCELDEECKERMRHKSDPEARLDADALKAHYQMATMPKGTNVKNYYVCDDLWVPICSISHKMYILPGIPQLFARMLKAFTPTLKKIYNLDKDPREYVRYFVRTHLTESQISKELKLIQDESTKVSEAIKIGSYPHFGMGFNTVSILGEKKDDSYLKSIVNRVVNNLEGEVISSELENKFSNQES | not soluble
MKIAIPKERRPGEDRVAISPEVVKKLVGLGFEVIVEQGAGVGASITDDALTAAGATIASTAAQALSQADVVWKVQRPMTAEEGTDEVALIKEGAVLMCHLGALTNRPVVEALTKRKITAYAMELMPRISRANSMDILSSQSNLAGYRAVIDGAYEFARAFPMMMTAAGTVPPARVLVFGVGVAGLQAIATAKRLGAVVMATDVRAATKEQVESLGGKFITVDDEAMKTAETAGGYAKEMGEEFRKKQAEAVLKELVKTDIAITTALIPGKPAPVLITEEMVTKMKPGSVIIDLAVEAGGNCPLSEPGKIVVKHGVKIVGHTNVPSRVAADASPLFAKNLLNFLTPHVDKDTKTLVMKLEDETVSGTCVTRDGAIVHPALTGQGA | soluble
MSKFFINPEVLEKYSQKLAEHKSSVNHVRDLVAQADVSDESWGIVGLFVKQSYTEMLGDFKDLLKDMSDGLDSASDKMMSATRAYREIEEENRRILVEITRRINAAKIKNITS | not soluble
MLTMRICLRATYTQKEYKWESTVNEQISAASLYDRVARVIPKAEWMGFQDDVEAILELKRKRNAVILAHNYQTPEIFHGVADIVGDSLALARKAMEVEADVIVLAGVHFMAETAKLLNPEKTVLIPDMAAGCSLADSITPEDIALLRKAYPGVPVVTYVNTSAAVKAASDICCTSGNARQVVESLGVPRVLMLPDEYLAKNVAKETSVELIAWRGHCEVHELFTADDIRELRESHPGVIVLAHPECPPEVVDAADFSGSTAVMSDYVGRERPARVVLLTECSMSDNVAVHHPDVEFIRPCNLCPHMKRITLGNIRTALEENRHEVTVDPAIAGAARRAVERMLQIMAGDPLEHHHHHH | not soluble
MGSDKIHHHHHHMTRKRAKTHSVKKAPLFVLTSSPNPKRTTSNKSAGIWSYWTRRTAYAMSTHIIPRLQKVIDGEDQGGISKAVNWQGGGGFRYFRLAPTLIVNDKWGNQIINPDYNPEMLAEALAKLEGLPDFSWILELGSGFAFVGRQYRLEVNGDEFFIDLLFYHIRLKCYVVVELKAAAFKPEHAGQLNFYLAAVDAQVKAPDDNPTIGLLLCKTQNRLVAEYALSDIDKPIGIAEYELVRALPEPLVTNLPTVEQLESELSDWQEDGEFFGV | not soluble
